“And” between values parts separate entries of the source, which are not always exact repeats. Equal values may be shown once.
Legend:
[1] = molecular target: SARS-CoV-2 South African Δ3 B.1.351 variant (pseudovirus RVP-724) (SARS-CoV-2) (UniProt P0DTC2); assay: cell-based or functional assay
[2] = molecular target: SARS-CoV-2 N439K variant (pseudovirus RVP-703) (SARS-CoV-2) (UniProt P0DTC2); assay: cell-based or functional assay

Q: For REGN10987 (antibody), which EC50 (pM) Neutralization, South Africa B.1.351 [1] is on record?
A: 2.48 pM and 2.37 pM

Q: And the EC50 (pM) Neutralization, N439K [2]?
A: 2260 pM and 2220 pM

Q: And the pseudovirus neutralization, potency against REGN10933 [2]?
A: 1000 fold
